Laboratory results published in the supplement of paper PMC7877785.
± gives the uncertainty stated by the source.

Test: self-splicing fitness, log relative to wild type (ln ratio); higher = more splicing; Tetrahymena group I intron in knt gene, E. coli kanamycin selection, DiMSum; sequences stand for … in CUCUCU…GGAGGGAAAAGUUAUCAGGCAUGCACCUGGUAGCUAGUCUUUAAACCAAUAGAUUGCAUCGGUUUAAAAGGCAAGACCGUCAAAUUGCGGGAAAGGGGUCAACAGCCGUUCAGUACCAAGUCUCAGGGGAAACUUUGAGAUGGCCUUGCAAAGGGUAUGGUAAUAAGCUGACGGACAUGGUCCUAACCACGCAGCCAAGUCCUAAGUCAACAGAUCUUCUGUUGAUAUGGAUGCAGUUCACAGACUAAAUGUCGGUCGGGGAAGAUGUAUUCUUCUCAUAAGAUAUAGUCGGACCUCUCCUUAAUGGGAGCUAGCGGAUGAAGUGAUGCAACACUGGAGCCGCUGGGAACUAAUUUGUAUGCGAAAGUAUAUUGAUUAGUUUUGGAGUACUCGUGGUCG
Procedure, shortened: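 A randomised library covering all eight P1ex-region intron nucleotides was built with the intron in the knt kanamycin-resistance gene on pET-22b(+) and held in E. coli BL21(DE3). Cells were grown overnight at 37°C or 30°C on LB agar, with or without 25 μg/mL kanamycin, plus 100 μg/mL carbenicillin, 50 μM IPTG and 0.2% rhamnose, and pooled colonies were amplicon-sequenced on an Illumina HiSeq 2500. DiMSum fitness is the error-weighted combination of wild-type-normalised replicate fold changes, kanamycin versus none.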

Sequence	self-splicing fitness (ln) (30 °C)	self-splicing fitness (ln) (37 °C)
UCCGAGCAAUAUUACGGAAU	-1.91 ± 0.14	-1.77 ± 0.2
GAUUAGCAAUAUUACGCUGA	-3.17 ± 0.23	-2.53 ± 0.27
GCGUAGCAAUAUUACGCCCG	–	0.544 ± 0.44
UUUAAGCAAUAUUACGCCAU	–	-2.36 ± 0.29
CUUGAGCAAUAUUACGUAAC	-1.67 ± 0.38	–
GAACAGCAAUAUUACGCCGC	–	-2.35 ± 0.34
AGUCAGCAAUAUUACGUCUG	-2.2 ± 0.13	-0.783 ± 0.12
CCAAAGCAAUAUUACGCUGG	-4.28 ± 0.23	-2.46 ± 0.17
ACGUAGCAAUAUUACGUGUC	-3.68 ± 0.32	-2.48 ± 0.37
ACGUAGCAAUAUUACGCCCU	-0.282 ± 0.11	-0.245 ± 0.095
AAGAAGCAAUAUUACGCGUG	-0.716 ± 0.073	-0.537 ± 0.093
UGGGAGCAAUAUUACGUAGU	–	-1.82 ± 0.28
GAUUAGCAAUAUUACGCCGG	-2.88 ± 0.45	-1.96 ± 0.41
CCCUAGCAAUAUUACGGGGC	-3.47 ± 0.15	-2.15 ± 0.22
CGUGAGCAAUAUUACGUACU	-1.7 ± 0.12	-0.396 ± 0.14
GAGAAGCAAUAUUACGUCAA	-1.82 ± 0.11	-0.98 ± 0.11
ACCGAGCAAUAUUACGCUUA	-1.56 ± 0.14	-1.63 ± 0.17
CUCGAGCAAUAUUACGGAUA	-2.79 ± 0.28	-3.68 ± 0.46
GAAAAGCAAUAUUACGGGGG	-3.11 ± 0.21	-1.15 ± 0.17
GCCUAGCAAUAUUACGUAUG	-3.92 ± 0.16	-2.61 ± 0.13
ACUCAGCAAUAUUACGUCUA	-0.845 ± 0.081	-0.152 ± 0.076
GCGGAGCAAUAUUACGGUUA	-2.84 ± 0.29	-0.698 ± 0.21
GGCCAGCAAUAUUACGCAGG	–	-2.78 ± 0.22
CGCGAGCAAUAUUACGCGAC	-2.96 ± 0.34	-0.404 ± 0.39
CCUGAGCAAUAUUACGUGAU	-3.68 ± 0.24	-3.54 ± 0.33

Sequence	self-splicing fitness (ln) (30 °C)	self-splicing fitness (ln) (37 °C)
GUUCAGCAAUAUUACGCGGC	–	-2.94 ± 0.43
AUUUAGCAAUAUUACGACGG	-1.79 ± 0.18	-0.641 ± 0.16
AACCAGCAAUAUUACGAUCC	-0.433 ± 0.078	-0.358 ± 0.12
CGGCAGCAAUAUUACGUUGA	-2.63 ± 0.19	-1.8 ± 0.16
UUGCAGCAAUAUUACGAAGG	-3.92 ± 0.28	-1.53 ± 0.2
ACAUAGCAAUAUUACGUUCU	-1.19 ± 0.11	-0.553 ± 0.12
ACAUAGCAAUAUUACGUAGA	-3.71 ± 0.15	-1.62 ± 0.12
CCUGAGCAAUAUUACGAGUA	-2.98 ± 0.21	-3.03 ± 0.43
CAAAAGCAAUAUUACGGGUA	-2.22 ± 0.13	-2.12 ± 0.15
UGUUAGCAAUAUUACGCUGA	-2.26 ± 0.44	–
GUGCAGCAAUAUUACGGGGA	-4.16 ± 0.3	-2.8 ± 0.23
UUUGAGCAAUAUUACGUCAA	-1.66 ± 0.21	-2.66 ± 0.37
GAUAAGCAAUAUUACGGGAG	-4.18 ± 0.25	-2.34 ± 0.15
UGGAAGCAAUAUUACGGGUA	-1.67 ± 0.13	-1.05 ± 0.13
AGGGAGCAAUAUUACGUUAA	-3.09 ± 0.48	-2.66 ± 0.41
GAGCAGCAAUAUUACGCCAU	-2.67 ± 0.46	-3.33 ± 0.43
UUAUAGCAAUAUUACGGAGG	-1.68 ± 0.31	-2.37 ± 0.32
AUCGAGCAAUAUUACGUAUC	-2.86 ± 0.35	-3.28 ± 0.37
UACGAGCAAUAUUACGCAUG	-2.37 ± 0.25	-2.25 ± 0.24
GCCCAGCAAUAUUACGAGUU	-1.13 ± 0.048	-0.432 ± 0.066
CACAAGCAAUAUUACGAUCG	-0.581 ± 0.069	0.875 ± 0.091
ACUUAGCAAUAUUACGAACG	-1.16 ± 0.089	-0.581 ± 0.1
UCCGAGCAAUAUUACGAUUG	-3.7 ± 0.28	-1.77 ± 0.28
AAGGAGCAAUAUUACGUGUG	-3.39 ± 0.17	-0.957 ± 0.15
UACCAGCAAUAUUACGAGCA	-0.673 ± 0.066	0.225 ± 0.09

Sequence	self-splicing fitness (ln) (30 °C)	self-splicing fitness (ln) (37 °C)
GUGAAGCAAUAUUACGGGAA	-2.11 ± 0.12	-0.793 ± 0.11
GCCGAGCAAUAUUACGUGUC	-3.23 ± 0.14	-1.64 ± 0.12
CGCAAGCAAUAUUACGCCCA	-0.622 ± 0.17	-0.291 ± 0.16
CAUAAGCAAUAUUACGCUCC	-2.87 ± 0.23	-0.216 ± 0.49
GUACAGCAAUAUUACGUCAG	-4.26 ± 0.29	-2.99 ± 0.26
UAAAAGCAAUAUUACGGACG	0.221 ± 0.11	0.00931 ± 0.13
CCAUAGCAAUAUUACGUCAA	-4.82 ± 0.41	-0.857 ± 0.17
CUAGAGCAAUAUUACGCAAA	-2.62 ± 0.27	-1.27 ± 0.4
AUGGAGCAAUAUUACGUCCC	0.0307 ± 0.46	-0.013 ± 0.42
UAGAAGCAAUAUUACGCAGU	-4.08 ± 0.29	-2.07 ± 0.25
GAGAAGCAAUAUUACGAAAG	-4.36 ± 0.32	-1.5 ± 0.2
AUUUAGCAAUAUUACGACUG	-2 ± 0.17	-1.41 ± 0.16
CUGCAGCAAUAUUACGUCGU	-4.05 ± 0.25	-3.44 ± 0.25
ACAGAGCAAUAUUACGUCAC	-3.39 ± 0.26	-2.43 ± 0.41
GACAAGCAAUAUUACGAAAA	-2.27 ± 0.24	-2.22 ± 0.31
UUGAAGCAAUAUUACGACAU	0.0991 ± 0.013	0.28 ± 0.033
CCAUAGCAAUAUUACGACCU	-2.92 ± 0.33	-1.28 ± 0.41
ACGUAGCAAUAUUACGUAGU	-3.78 ± 0.23	-1.26 ± 0.16
CCAUAGCAAUAUUACGGUGU	-4.24 ± 0.17	-2.58 ± 0.15
UCGUAGCAAUAUUACGGGAU	-4.41 ± 0.46	-1.99 ± 0.31
AAUGAGCAAUAUUACGGGAU	-4.32 ± 0.28	-3.09 ± 0.29
AAAAAGCAAUAUUACGACUG	-1.14 ± 0.098	-0.0274 ± 0.11
CACCAGCAAUAUUACGGAGG	-1.85 ± 0.078	-1.4 ± 0.11
UGCAAGCAAUAUUACGCCCA	-0.543 ± 0.14	0.796 ± 0.23
UCACAGCAAUAUUACGGGUA	-1.93 ± 0.13	-0.772 ± 0.1

Sequence	self-splicing fitness (ln) (30 °C)	self-splicing fitness (ln) (37 °C)
CCCGAGCAAUAUUACGGAAG	-3.91 ± 0.24	-2.29 ± 0.15
UAAAAGCAAUAUUACGUGCU	-2.62 ± 0.1	-1.56 ± 0.11
GGCCAGCAAUAUUACGGAUC	-0.753 ± 0.092	-0.347 ± 0.11
CAACAGCAAUAUUACGACAG	-0.131 ± 0.073	0.499 ± 0.09
CUGCAGCAAUAUUACGUGCU	-4.44 ± 0.23	-2.54 ± 0.19
AGGAAGCAAUAUUACGCCAG	-2.89 ± 0.18	-1.81 ± 0.22
CGUCAGCAAUAUUACGGCGU	-4.74 ± 0.34	-0.685 ± 0.19
CUCGAGCAAUAUUACGUUGA	-3.86 ± 0.28	-2.63 ± 0.38
GUGAAGCAAUAUUACGUAGC	-3.31 ± 0.15	-1.84 ± 0.18
AGUGAGCAAUAUUACGAGUA	-3.6 ± 0.44	-2.18 ± 0.32
CUGCAGCAAUAUUACGCUCG	-2.3 ± 0.16	-0.671 ± 0.16
AUGGAGCAAUAUUACGGUAG	-3.61 ± 0.33	-2.51 ± 0.41
GUCGAGCAAUAUUACGUGAA	-1.6 ± 0.12	-1.86 ± 0.17
GAUCAGCAAUAUUACGACAU	-0.0993 ± 0.012	0.102 ± 0.032
AUGAAGCAAUAUUACGUCUC	-1.1 ± 0.14	-1.22 ± 0.14
CGCUAGCAAUAUUACGACGA	-1.46 ± 0.15	0.422 ± 0.16
AUGAAGCAAUAUUACGCCCU	0.921 ± 0.15	0.202 ± 0.17
GCAAAGCAAUAUUACGACGC	-1.27 ± 0.082	-1.2 ± 0.11
CAACAGCAAUAUUACGCAGA	-3.45 ± 0.14	-1.35 ± 0.075
GGAAAGCAAUAUUACGCGUU	-3.16 ± 0.16	-2.49 ± 0.19
CGAUAGCAAUAUUACGAGGG	-2.4 ± 0.15	-2.14 ± 0.26
GCACAGCAAUAUUACGGAAG	-3.04 ± 0.13	-2.11 ± 0.13
